According to the DeepSol protein solubility set:

Experiment: soluble on expression in E. coli; label from the status in PepcDB or PDB records

| Sequence | soluble on expression in E. coli |
| --- | --- |
| MSPVHWPIHPKEYKWTVKPSPGPHAIENSLPLMIIVRDILKVADNAREARKIINSGEVLVDGRPRKNYKFPVGFMDVVSIPRTGDVYRVLPDERGRLVLHPIDEENAGFKLCKIVNKTTIKGGRTQLNLHDGRNYLSDDEFRVGDVVKLSIPEQEILERIPFEKDSLGLVTGGRHTGEIGKIKKINITRSSMPNTAVIETGAGKTFLTLKDYVFVIGKDESVISLPGGKLEHHHHHH | not soluble |
| MKLSRISAINWNKIQDDKDLEVWNRLTSNFWLPEKVPLSNDIPAWQTLSAAEQQLTIRVFTGLTLLDTIQNIAGAPSLMADAITPHEEAVLSNISFMEAVHARSYSSIFSTLCQTKEVDAAYAWSEENPPLQRKAQIILAHYVSDEPLKKKIASVFLESFLFYSGFWLPMYFSSRGKLTNTADLIRLIIRDEAVHGYYIGYKYQIALQKLSAIEREELKLFALDLLMELYDNEIRYTEALYAETGWVNDVKAFLCYNANKALMNLGYEALFPPEMADVNPAILAALSPNADENHDFFSGSGSSYVMGKTVETEDEDWNF | soluble |
| MGSDKIHHHHHHMGETVPEKAQGAIRHGGNLGKARLMFRQAPEPWIDLSTGINPHSYPHSPIPASAFARLPEPGAAEELKQLAAAHFGAPSAQHVTLSPGTQMLMPLLAQIAINRGAQSGAVLSPAYAEHARTARMAGLTVTEVENIGDLSAYGYAVVVNPNNPDGRITDREALLALAGTIGRKGGLLVVDEAFIETGGAESLAVATNGEALVVLRSFGKFYGMAGVRLGFAIAHPEIAAELEARLGPWAVSGPALHIATEALADREWQSSMRLRLAEEARRMNELLEKAGLKIAGGTSLFTLVRDERSRALFGHLGRRGILVRIFDERPDDMRFGLPGSEADWQRVEEALRSFDHSSKV | not soluble |
| QVQLQESGPGLMKPSETLSLTCSVSGDSIRSDYWSWIRKPPGKGLEYIGYVSYSGSTYYNPSLKSRVTISVDTSKNRFSLKLNSVTAADTAVYYCARWDGDYWGQGILVTVSS | soluble |
| KSITIQTPYLIPDQPIYESLTIALAAGVKVNIFIPDRPDHPFVYRATQYYAQEFIDFGANVYRYDGGFLHSKLLIIDDEIVSIGSANMDIRSFELSFEANAFIYSSYFAKKIEKQISIDISKSKLLSKKDFETQ | not soluble |
| MNVTSVTSEDGVKEFEKIVVEPEDIEYVEIPADAKNVDLTRHRIKEIGDYSWLTHVEHFSFRWNLIKKIENLDCLTTLTHLEFYDNQITKVENLDSLVNLESLDLSFNRITKIENLEKLTKLKTLFFVHNKITKIEGLDTLTELEYLELGDNRIAKIENLDNNLKLDRLFLGANQIRLIENVDHLKKLTVLSLPANAITVVDNISGLHNLKEIYLAQNGIKYVCGIDEHLPLEILDFNQNRLEKVENIHQLKTLTDFWARGNKLDNWSIMDELVELPQLNSVYLDFNPIASVDTYRGKVIHLLQQITRLDGTQCREHSMLRPPKEEKNETELSRVVLDNPSDDHPTESV | not soluble |
| MNKEQECSKNIFDLPREIVIYHLKSAGIFVFEELDCDDIAQTPLLIMAPSVPLHVRLERTPTINLLKCHEKPLTEDQLFLLLSKCQQHTKKCMPSEEEIDQWVEVSSSKPREQSSNRGSKKDSWNHSIFMYNFFHRRGSNKRAAKYLEKIENGKSEKIRARVSQIRNLDLGYISLPMETINLEDAKQRDKLKEKALAETAESKKGKDILNLFTNVYY | not soluble |
| RPNDIYVNMKTDFKAQLARCQKLLDGGARGQNACSEIYIHGLGLAINRAINIALQLQAGSFGSLQVAANTSTVELVDELEPETDTREPLTRIRNNSAIHIRVFRVTPK | not soluble |
| MGSDKIHHHHHHMAQQKPHDVNEPSRRRLLKGIGALGGALAITGGCPVAHAAKAESSPGTLTPDARQEKQPFYGRHQAGILTPQQASMMLVAFDVLAADKADLERLFRLLTQRIAFLTQGGPAPDTPNPRLPPMDSGILGPWIAPDNLTITVSVGHSLFDERFGLADKAPKKLQPMTRFPNDSLDAALCHGDLLLQICANTQDTVIHALRDVIKHTPDLLSVRWKREGFISDSAARSKGKETPINLLGFKDGTANPASHDSALMDKVVWVTADQDEPAWTVGGSYQAARIIQFHVEFWDRTPLKEQQTIFGRDKHTGAPLGMKNEHDTPDYSKDPNGEVIALDSHIRLANPRTPETQSSLMMRRGYSYSLGVTNAGQLDMGLLFVCYQHDLEKGFLTVQKRLNGEALEEYVKPIGGGYFFVLPGVVDEKHYLGESLLQA | not soluble |
| LDGIAELTGARVEDLAGMDVFQGCPAEGLVSLAASVQPLRAAAGQVLLRQGEPAVSFLLISSGSAEVSHVGDDGVAIIARALPGMIVGEIALLRDSPRSATVTTIEPLTGWTGGRGAFATMVHIPGVGERLLRTARQRLAAFVSPIPVRLADGTQLMLRPVLPGDRERTVHGHIQFSGETLYRRFMSARVPSPALMHYLSEVDYVDHFVWVVTDGSDPVADARFVRDETDPTVAEIAFTVADAYQGRGIGSFLIGALSVAARVDGVERFAARMLSDNVPMRTIMDRYGAVWQREDVGVITTMIDVPGPGELSLGREMVDQINRVARQVIEAVG | not soluble |
| MFFERHGGGERAILVHLDGQDPEAREDPQEFQELALSAGAETVAFVSVPRHRPTAKYLVGSGKVEELRDLVKAEQVDLVIFNHILTPSQERNLERVFECRVIDRTGLILDIFAQRARTHEGKLQVELAQLEHMSTRLVRGWTHLERQKGGIGLRGPGETQLETDRRLLRVRLRQIKARLEKVRSQREQARRGRKRADIPSVSLVGYTNAGKSTLFNAVTASDVFAADQLFATLDPTLRRLELDDLGPIVLADTVGFIRHLPHKLVEAFRATLEESSNSDLLLHVIDAHEPERMAQIEQVMVVLGEIGAQDLPILEVYNKLDLLEGVEPQIQRDPDGKPQRVWLSARDGQGLDLLKQAIAELLGEDLFVGTLRLPQRFARLRAQFFQLNAVQKEDHDDEGVSLLAVRLPRAELNRLVSREGMQPSEFIEQHTLQLEHHHHHH | soluble |
| MKLSPREADGYFARPDAGKTGILIHGADAMRIALKRQQIIAALLGPGGEEEMRLTRMPGAELRKDAAQLLDAVKAVGFFPGPRVVFVEDCPETSAPAVLTALEDWQPGDAQIVVTAGQLKPSSKIRKAFETHPNAYAAGIYDDPPSRAEIERMLSAAGIRDVPPEPMTVLSDLARDLGPGDFAQTMEKLALYKLGDTAPLVLEDIAACAPRSTEAALDDVLNVVAEGKEGEIGPLIRRLQAQGTTPVSLCIGATRHFRTLYTCASAPGGPSQGIGALRPPVFGPRRDRILNQAQRWGARRLEAALTVLTDTDLALRSAGQSAPQMALVERAMIRLAWLSRSRLEHHHHHH | not soluble |
| MSLTTENQNPLVLDKNEEISQQKADDIRLQLRQEPEVKRLAQQIDVKNQMELLEYGKEPAVEISKFSDRILGMMKTTSVTDSGTMLTQLGKIMDRFDKNDFDEPKGLMAKIFKRGGSMIEKIFKKYQTLGGEIEKIHVEISKYKDEMTKTNYTLDEMYENNIKYYMELEKYVVAGQMKLEEMQSILPSYEEKAASGNQLAQMQLDTLRNGIQALEERVYDLDMARMVALQTAPQIRLLQRGNAKLIGKINSAFIITIPIFKNGIIQAVTVKRQKLVADSMSELDRRTNEMLKRNAENISSQSVEIARMAGRPSIDIETIESSWNTIVSGMQETKQIEEENKRLREDGARRIAQLQDNIKKAALQQEGHHHHHH | not soluble |
| MGSDKIHHHHHHMQMKQVLLEARQDFLSLLKRRGWKEKDLNILRGIFLGELSRVDVPADIFELAIKEAVKGNLKLSSKLLGVSEIDTLEILFWYLPKKYPLPSERLKKRLKAESVKEFIEEANRLRVKLGKKDFMELYLHLEEAEEEEEKRENTDLLERVRNLSIEKLSESEIEELRYFYSLLDLRGKESVRTLNVHPYILSAIIRNPSAPIVIDGSNLLWRGGLSVSYIYEVFERLAVFREFFFPYRIVFDRNAEFVLPVHERKGFERWKNSPNVLFESPADGLIISLANTMDAVVLSGDRFRDHGLPRRVRVLTPEEIEKG | not soluble |
